Results published in patent US20190185537A1 (AstraZeneca / MedImmune, published 2019).
Numbered stars: 1 amine (or outer) side, 2 acyl side, 3 side chain; on linkers, the order of the positions; unused ones are H or OH. Side chains are listed from the residue outwards. Ends that are not written are not given here. * marks the point of attachment. γGlu = O=C(O)[C@H](CCC(=O)[*:2])N[*:1]; Palmitoyl = CCCCCCCCCCCCCCCC(=O)*; Ahx = NCCCCCC(=O)O; βAla = NCCC(=O)O

T1: human glucose-dependent insulinotropic peptide (gastric inhibitory polypeptide) receptor (human) (UniProt P48546)
T1 sequence (looked up): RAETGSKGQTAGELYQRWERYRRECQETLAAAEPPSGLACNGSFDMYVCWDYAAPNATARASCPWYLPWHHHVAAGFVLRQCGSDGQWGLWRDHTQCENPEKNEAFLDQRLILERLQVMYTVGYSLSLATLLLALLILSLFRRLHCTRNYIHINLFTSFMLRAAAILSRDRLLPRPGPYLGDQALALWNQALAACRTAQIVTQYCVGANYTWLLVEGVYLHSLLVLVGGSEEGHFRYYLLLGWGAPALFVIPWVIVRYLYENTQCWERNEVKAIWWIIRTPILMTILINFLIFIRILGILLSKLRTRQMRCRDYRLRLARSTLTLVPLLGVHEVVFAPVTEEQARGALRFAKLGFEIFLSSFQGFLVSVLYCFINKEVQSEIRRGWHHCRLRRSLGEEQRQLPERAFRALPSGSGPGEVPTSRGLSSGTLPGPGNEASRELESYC

B1: g727 (peptide)
peptide: HGQGTFTSDYSEYLDSK([Ahx-Palmitoyl])RARDFVAWLERGG-OH
modifications: N-terminus assumed
SMILES: CCCCCCCCCCCCCCCC(=O)NCCCCCC(=O)NCCCC[C@H](NC(=O)[C@H](CO)NC(=O)[C@H](CC(=O)O)NC(=O)[C@H](CC(C)C)NC(=O)[C@H](Cc1ccc(O)cc1)NC(=O)[C@H](CCC(=O)O)NC(=O)[C@H](CO)NC(=O)[C@H](Cc1ccc(O)cc1)NC(=O)[C@H](CC(=O)O)NC(=O)[C@H](CO)NC(=O)[C@@H](NC(=O)[C@H](Cc1ccccc1)NC(=O)[C@@H](NC(=O)CNC(=O)[C@H](CCC(N)=O)NC(=O)CNC(=O)[C@@H](N)Cc1c[nH]cn1)[C@@H](C)O)[C@@H](C)O)C(=O)N[C@@H](CCCNC(=N)N)C(=O)N[C@@H](C)C(=O)N[C@@H](CCCNC(=N)N)C(=O)N[C@@H](CC(=O)O)C(=O)N[C@@H](Cc1ccccc1)C(=O)N[C@H](C(=O)N[C@@H](C)C(=O)N[C@@H](Cc1c[nH]c2ccccc12)C(=O)N[C@@H](CC(C)C)C(=O)N[C@@H](CCC(=O)O)C(=O)N[C@@H](CCCNC(=N)N)C(=O)NCC(=O)NCC(=O)O)C(C)C
B2: g614 (peptide)
peptide: HSQGTFTSDYSEYLDSK([Ahx-Palmitoyl])RAQDFVQWLERGG-NH2
modifications: N-terminus assumed
SMILES: CCCCCCCCCCCCCCCC(=O)NCCCCCC(=O)NCCCC[C@H](NC(=O)[C@H](CO)NC(=O)[C@H](CC(=O)O)NC(=O)[C@H](CC(C)C)NC(=O)[C@H](Cc1ccc(O)cc1)NC(=O)[C@H](CCC(=O)O)NC(=O)[C@H](CO)NC(=O)[C@H](Cc1ccc(O)cc1)NC(=O)[C@H](CC(=O)O)NC(=O)[C@H](CO)NC(=O)[C@@H](NC(=O)[C@H](Cc1ccccc1)NC(=O)[C@@H](NC(=O)CNC(=O)[C@H](CCC(N)=O)NC(=O)[C@H](CO)NC(=O)[C@@H](N)Cc1c[nH]cn1)[C@@H](C)O)[C@@H](C)O)C(=O)N[C@@H](CCCNC(=N)N)C(=O)N[C@@H](C)C(=O)N[C@@H](CCC(N)=O)C(=O)N[C@@H](CC(=O)O)C(=O)N[C@@H](Cc1ccccc1)C(=O)N[C@H](C(=O)N[C@@H](CCC(N)=O)C(=O)N[C@@H](Cc1c[nH]c2ccccc12)C(=O)N[C@@H](CC(C)C)C(=O)N[C@@H](CCC(=O)O)C(=O)N[C@@H](CCCNC(=N)N)C(=O)NCC(=O)NCC(N)=O)C(C)C
B3: g724 (peptide)
peptide: HGEGTFTSDYSEYLDSK([Ahx-Palmitoyl])RARDFVAWLERGG-NH2
modifications: N-terminus assumed
SMILES: CCCCCCCCCCCCCCCC(=O)NCCCCCC(=O)NCCCC[C@H](NC(=O)[C@H](CO)NC(=O)[C@H](CC(=O)O)NC(=O)[C@H](CC(C)C)NC(=O)[C@H](Cc1ccc(O)cc1)NC(=O)[C@H](CCC(=O)O)NC(=O)[C@H](CO)NC(=O)[C@H](Cc1ccc(O)cc1)NC(=O)[C@H](CC(=O)O)NC(=O)[C@H](CO)NC(=O)[C@@H](NC(=O)[C@H](Cc1ccccc1)NC(=O)[C@@H](NC(=O)CNC(=O)[C@H](CCC(=O)O)NC(=O)CNC(=O)[C@@H](N)Cc1c[nH]cn1)[C@@H](C)O)[C@@H](C)O)C(=O)N[C@@H](CCCNC(=N)N)C(=O)N[C@@H](C)C(=O)N[C@@H](CCCNC(=N)N)C(=O)N[C@@H](CC(=O)O)C(=O)N[C@@H](Cc1ccccc1)C(=O)N[C@H](C(=O)N[C@@H](C)C(=O)N[C@@H](Cc1c[nH]c2ccccc12)C(=O)N[C@@H](CC(C)C)C(=O)N[C@@H](CCC(=O)O)C(=O)N[C@@H](CCCNC(=N)N)C(=O)NCC(=O)NCC(N)=O)C(C)C
B4: g721 (peptide)
peptide: HGQGTFTSDYSEYLDSK([γGlu-Palmitoyl])RARDFVAWLERGG-NH2
modifications: N-terminus assumed
SMILES: CCCCCCCCCCCCCCCC(=O)N[C@@H](CCC(=O)NCCCC[C@H](NC(=O)[C@H](CO)NC(=O)[C@H](CC(=O)O)NC(=O)[C@H](CC(C)C)NC(=O)[C@H](Cc1ccc(O)cc1)NC(=O)[C@H](CCC(=O)O)NC(=O)[C@H](CO)NC(=O)[C@H](Cc1ccc(O)cc1)NC(=O)[C@H](CC(=O)O)NC(=O)[C@H](CO)NC(=O)[C@@H](NC(=O)[C@H](Cc1ccccc1)NC(=O)[C@@H](NC(=O)CNC(=O)[C@H](CCC(N)=O)NC(=O)CNC(=O)[C@@H](N)Cc1c[nH]cn1)[C@@H](C)O)[C@@H](C)O)C(=O)N[C@@H](CCCNC(=N)N)C(=O)N[C@@H](C)C(=O)N[C@@H](CCCNC(=N)N)C(=O)N[C@@H](CC(=O)O)C(=O)N[C@@H](Cc1ccccc1)C(=O)N[C@H](C(=O)N[C@@H](C)C(=O)N[C@@H](Cc1c[nH]c2ccccc12)C(=O)N[C@@H](CC(C)C)C(=O)N[C@@H](CCC(=O)O)C(=O)N[C@@H](CCCNC(=N)N)C(=O)NCC(=O)NCC(N)=O)C(C)C)C(=O)O
B5: g684 (peptide)
peptide: HGQGTFTSDYSEYLDSK([Ahx-Palmitoyl])RARDFVAWLERGG-NH2
modifications: N-terminus assumed
SMILES: CCCCCCCCCCCCCCCC(=O)NCCCCCC(=O)NCCCC[C@H](NC(=O)[C@H](CO)NC(=O)[C@H](CC(=O)O)NC(=O)[C@H](CC(C)C)NC(=O)[C@H](Cc1ccc(O)cc1)NC(=O)[C@H](CCC(=O)O)NC(=O)[C@H](CO)NC(=O)[C@H](Cc1ccc(O)cc1)NC(=O)[C@H](CC(=O)O)NC(=O)[C@H](CO)NC(=O)[C@@H](NC(=O)[C@H](Cc1ccccc1)NC(=O)[C@@H](NC(=O)CNC(=O)[C@H](CCC(N)=O)NC(=O)CNC(=O)[C@@H](N)Cc1c[nH]cn1)[C@@H](C)O)[C@@H](C)O)C(=O)N[C@@H](CCCNC(=N)N)C(=O)N[C@@H](C)C(=O)N[C@@H](CCCNC(=N)N)C(=O)N[C@@H](CC(=O)O)C(=O)N[C@@H](Cc1ccccc1)C(=O)N[C@H](C(=O)N[C@@H](C)C(=O)N[C@@H](Cc1c[nH]c2ccccc12)C(=O)N[C@@H](CC(C)C)C(=O)N[C@@H](CCC(=O)O)C(=O)N[C@@H](CCCNC(=N)N)C(=O)NCC(=O)NCC(N)=O)C(C)C

molecular target: human GLP-1 receptor (human, UniProt P43220 24-463); assay: cell-based or functional assay
Sequence (P43220 24-463): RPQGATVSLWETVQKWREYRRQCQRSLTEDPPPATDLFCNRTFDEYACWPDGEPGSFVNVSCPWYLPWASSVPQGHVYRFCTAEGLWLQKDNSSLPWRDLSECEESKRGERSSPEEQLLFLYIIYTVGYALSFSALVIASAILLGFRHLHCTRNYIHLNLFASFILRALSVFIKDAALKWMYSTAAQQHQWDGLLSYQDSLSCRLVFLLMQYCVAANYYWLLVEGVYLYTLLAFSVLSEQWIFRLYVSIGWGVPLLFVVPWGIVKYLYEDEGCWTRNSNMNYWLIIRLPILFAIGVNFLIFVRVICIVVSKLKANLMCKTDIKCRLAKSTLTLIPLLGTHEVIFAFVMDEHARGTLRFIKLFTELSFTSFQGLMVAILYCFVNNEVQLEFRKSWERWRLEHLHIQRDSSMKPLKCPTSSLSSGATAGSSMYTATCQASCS

Row | cAMP EC50 (assay 1) | Binder
1 | 0.0263 nM | B1
2 | 0.00931 nM | B2
3 | 0.019 nM | B3
4 | 0.0734 nM | HSQGTFTSDYSEYLDSK([βAla-Palmitoyl])RARDFVAWLERGG-NH2 (not fully specified) [g795]
5 | 0.411 nM | B4
6 | 0.0293 nM | HSQGTFTSDYSEYLDSK([Ahx-Palmitoyl])RARDFVAWLERGG-OH (not fully specified) [g826]
7 | 0.0157 nM | HSQGTFTSDYSEYLDSK([Ahx-Palmitoyl])RARDFVAWLERGG-NH2 (not fully specified) [g794]
8 | 0.292 nM | HSQGTFTSDYSEYLDSK([γGlu-Palmitoyl])RARDFVAWLERGG-NH2 (not fully specified) [g772]
9 | 0.0151 nM | B5

molecular target: human glucagon receptor (human, UniProt P47871 26-477); assay: cell-based or functional assay
Sequence (P47871 26-477): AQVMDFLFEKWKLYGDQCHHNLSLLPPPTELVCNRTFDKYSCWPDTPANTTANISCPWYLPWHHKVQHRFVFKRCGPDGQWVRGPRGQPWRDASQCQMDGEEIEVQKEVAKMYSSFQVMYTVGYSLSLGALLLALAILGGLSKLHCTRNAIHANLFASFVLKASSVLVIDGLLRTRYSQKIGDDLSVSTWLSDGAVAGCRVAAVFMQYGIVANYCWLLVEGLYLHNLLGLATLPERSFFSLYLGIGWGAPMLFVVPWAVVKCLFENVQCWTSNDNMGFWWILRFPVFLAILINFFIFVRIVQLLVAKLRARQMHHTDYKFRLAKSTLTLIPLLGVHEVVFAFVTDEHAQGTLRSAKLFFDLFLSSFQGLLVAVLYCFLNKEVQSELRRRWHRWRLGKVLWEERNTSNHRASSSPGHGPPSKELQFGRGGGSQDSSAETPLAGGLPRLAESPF

Row | cAMP EC50 (assay 1) | Binder
10 | 0.218 nM | B1
11 | 0.00365 nM | B2
12 | 30.9 nM | B3
13 | 0.11 nM | HSQGTFTSDYSEYLDSK([βAla-Palmitoyl])RARDFVAWLERGG-NH2 (not fully specified) [g795]
14 | 3.23 nM | B4
15 | 0.00423 nM | HSQGTFTSDYSEYLDSK([Ahx-Palmitoyl])RARDFVAWLERGG-OH (not fully specified) [g826]
16 | 0.00469 nM | HSQGTFTSDYSEYLDSK([Ahx-Palmitoyl])RARDFVAWLERGG-NH2 (not fully specified) [g794]
17 | 0.184 nM | HSQGTFTSDYSEYLDSK([γGlu-Palmitoyl])RARDFVAWLERGG-NH2 (not fully specified) [g772]
18 | 0.164 nM | B5

molecular target: T1, human glucose-dependent insulinotropic peptide (gastric inhibitory polypeptide) receptor (human); assay: cell-based or functional assay

Row | cAMP EC50 (assay 1) | Binder
19 | 177 nM | B1
20 | 99.3 nM | B2
21 | 933 nM | B3
22 | 579 nM | HSQGTFTSDYSEYLDSK([βAla-Palmitoyl])RARDFVAWLERGG-NH2 (not fully specified) [g795]
23 | 979 nM | B4
24 | 58 nM | HSQGTFTSDYSEYLDSK([Ahx-Palmitoyl])RARDFVAWLERGG-OH (not fully specified) [g826]
25 | 32.2 nM | HSQGTFTSDYSEYLDSK([Ahx-Palmitoyl])RARDFVAWLERGG-NH2 (not fully specified) [g794]
26 | 1540 nM | HSQGTFTSDYSEYLDSK([γGlu-Palmitoyl])RARDFVAWLERGG-NH2 (not fully specified) [g772]
27 | 146 nM | B5
